Measurements from PMC2193935 (The Journal of Experimental Medicine, 2002).

Biological target: the molecule itself
Assay: SDS-PAGE under non-reducing and reducing conditions with Western blot

B1: Epo-Fc/IHH (Epo-Fc with three inactivating point mutations in the FcRn-binding site of the Fc domain) (Fc fusion)
chain: APPRLICDSRVLERYILEAKEAENVTMGCAEGPRLSENITVPDTKVNFYAWKRMEVEEQAIEVWQGLSLLSEAILQAQALLANSSQPPETLQLHIDKAISGLRSLTSLLRVLGAQKELMSPPDTTPPAPLRTLTVDTFCKLFRVYANFLRGKLKLYTGEVCRRGDRGGSGGSVPRDCGCKPCICTVPEVSSVFIFPPKPKDVLTATLTPKVTCVVVDISKDDPEVQFSWFVDDVEVHTAQTQPREEQFNSTFRSVSELPIMAQDWLNGKEFKCRVNSAAFPAPIEKTISKTKGRPKAPQVYTIPPPKEQMAKDKVSLTCMITDFFPEDITVEWQWNGQPAENYKNTQPIMNTNGSYFVYSKLNVQKSNWEAGNTFTCSVLHEGLHNAHTEKSLSHSPGK
modifications: glycosylated (oligosaccharides cleaved by PNGase F)
stoichiometry N: 2
